From US20220089741A1 (HUABO BIOPHARM SHANGHAI, published 2022) come the findings set out here.

The target in assay [1] is human PD-L1 protein (hybridoma screening) (human, UniProt Q9NZQ7 19-239, limits assumed). As to the kind of experiment: SPR, hybridoma monoclone.
Assay [2] addresses T1, huPD-L1-his protein (human, UniProt Q9NZQ7 19-239).
T1 construct: Bought protein; also called human PD-L1-His protein; human PD-L1 protein; not shown: His tag
As to the kind of experiment: ELISA, huPD-L1-his coated at 1 ug/ml. On the procedure:
Specifically, 1 ug/ml huPD-L1-his protein (purchased from Sino Biological, #10084-H08H) was added to the ELISA plate at 50 ul/well, and coated at 2-8° C. for more than 12 hours. The raffinate of plate coating was discarded, 200 ul of 3% milk was added to each well, and blocked at room temperature for 1 hour. PBST not less than 200 uL was added to each well for washing once. The antibody sample to be tested was diluted to 100 ug/ml, then diluted 5 times for 11 gradients, and added to the ELISA plate at 100 uL/well. After incubation at room temperature for 1 hour, PBST no less than 200 uL was added to each well. After washing for 4 times, HRP-conjugated Rabbit Anti-Human IgG Fc Antibody (Luoyang Baiaotong Experimental Material Center, #C030222) diluted 25000 times with 3% milk-PBST was added as 100 uL/well. After incubating at room temperature for 1 hour, PBST not less than 200 uL was added to each well, washed 6 times and beat dry. 100 uL of TMB Substrate was added to each well. After 5 minutes of reaction at room temperature, 50 uL/well of 2M H2504 was added to terminate the reaction. The ELISA plate with stopped reaction was placed on the microplate reader, and the absorbance of OD450 value was read at 450 nm wavelength.

For assay [3], the target named is T2, rhPD-L1-his protein (monkey, UniProt G7PSE7 19-238).
T2 construct: Bought protein; also called monkey PD-L1 protein; Sino Biological #90251-C08H; not shown: C-terminal His tag
As to the kind of experiment: ELISA, rhPD-L1-his coated.

Assay [4] concerns the target T3, huPD-L1-moFc (human, UniProt Q9NZQ7 19-238, limits assumed).
T3 construct: also called 800023, Huabo Bio; not shown: mouse Fc
As to the kind of experiment: flow cytometry competition: blocking of huPD-L1-moFc binding to cells expressing human PD-1. On the procedure: The suspension of cells (3C2-huPD-1-6F4, Huabo Bio) expressing human PD-1 in the logarithmic growth phase was centrifuged (1000 rpm×5 min) to discard the culture medium, and the cells were resuspended with 1% BSA/PBS to a living cell density of 1×10⁶/ml. […] The reacted 96-well U-shaped plate was resuspended with 1% BSA/PBS, centrifuged (300 g×3 min) to discard the supernatant, and washed like this for twice. […] The reacted 96-well U-shaped plate was resuspended with 1% BSA/PBS, centrifuged (300 g×3 min) to discard the supernatant, and washed like this for three times. Finally, the plate was resuspended with 100 uL of 1% BSA/PBS for each well and the fluorescence intensity of the first channel was detected by flow cytometry (BD, #Accuri C6).

The target of assay [5] is T1, huPD-L1-his protein. As to the kind of experiment: SPR (Biacore 8K), antibody captured on anti-human capture CM5 chip, huPD-L1 as analyte, 1:1 model. On the procedure: In this experiment, SPR method was used to determine antibody-antigen binding kinetics and affinity.
Anti-Human Capture-CM5 chip (GE, #BR-1005-30) was prepared according to the coupling method of Human Antibody Captrue Kit (GE, #BR-1008-39) and Amino Coupling Kit (GE, BR-1000-50). The chip was balanced at room temperature for 20-30 min, and loaded into a Biacore 8K instrument. B5D1 was diluted to the experimental working concentration with equilibration buffer. The antigen was diluted to 50 nM with equilibration buffer, then diluted 3 times for 7 concentration gradients, and 2 zero concentrations (i.e. equilibration buffer) and 1 repeated concentration (generally is a repeat of lowest concentration) were set. In the order of antibody, antigen huPD-L1 (Sino Biological, #10084-H08H), and regeneration, 10 antigen concentrations (2 zero concentrations, 7 gradient concentrations, and 1 repeat concentration) were cyclically subjected to experimental analysis. The antigen injection flow rate was 30 uL/min, the binding time was 120 seconds, and the dissociation time was 600 seconds.

T1 sequence (Q9NZQ7 19-239 limits assumed): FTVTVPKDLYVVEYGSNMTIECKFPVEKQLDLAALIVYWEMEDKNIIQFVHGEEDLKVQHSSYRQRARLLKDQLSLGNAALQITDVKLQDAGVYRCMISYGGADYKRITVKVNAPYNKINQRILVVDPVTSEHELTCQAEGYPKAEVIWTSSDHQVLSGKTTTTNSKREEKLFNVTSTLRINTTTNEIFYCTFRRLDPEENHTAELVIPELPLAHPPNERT
T3 sequence (Q9NZQ7 19-238 limits assumed): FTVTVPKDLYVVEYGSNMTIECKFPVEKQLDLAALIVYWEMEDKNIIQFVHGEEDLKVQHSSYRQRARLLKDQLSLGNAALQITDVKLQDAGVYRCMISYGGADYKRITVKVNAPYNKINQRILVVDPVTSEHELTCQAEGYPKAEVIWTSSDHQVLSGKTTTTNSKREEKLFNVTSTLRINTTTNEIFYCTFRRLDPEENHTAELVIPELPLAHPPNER
T2 sequence (G7PSE7 entry or part of it limits assumed): as the sequence (Q9NZQ7 19-238 limits assumed) above, with A33T, A34S, S62N, R68Q, Q82R, F173L, T185A, T192I, H215L counted along it
Sequence of human PD-L1 protein (hybridoma screening) (Q9NZQ7 19-239 limits assumed): as the sequence (Q9NZQ7 19-239 limits assumed) above

B1: 36C06-D8 (antibody, V domains shown)
VH: QVQLQQSGAELVKPGASVKLSCKASGYAFTGYTIHWVKQRSGLGLEWLGWFYPGSGTLKYNEKFKDKATLTADKSSSTVYLELSRLTSEDSAVYFCARHGTGTLMAMDYWGQGTSVTVSS
VL: DVVVTQTPLSLPVSFGDQVSISCRSSQSLANSYGNTYLSWYLHKPGQSPQLLIYGISNRFSGVPDRFSGSGSGTDFTLKISTIKPEDLGMYYCLQGTHQPPTFGGGTKLEIK
notes: also called hybridoma 36C06/D8; mouse monoclonal antibody against human PD-L1
In turn, B1 yielded a Kd in assay [1] of 2.74 nM. This lies in the single-digit nanomolar range.

B2: chimeric antibody 900289 (antibody, V domains shown)
VH: QVQLQQSGAELVKPGASVKLSCKASGYAFTGYTIHWVKQRSGLGLEWLGWFYPGSGTLKYNEKFKDKATLTADKSSSTVYLELSRLTSEDSAVYFCARHGTGTLMAMDYWGQGTSVTVSS
VL: DVVVTQTPLSLPVSFGDQVSISCRSSQSLANSYGNTYLSWYLHKPGQSPQLLIYGISNRFSGVPDRFSGSGSGTDFTLKISTIKPEDLGMYYCLQGTHQPPTFGGGTKLEIK
notes: Expressed in CHO-S cells; also called chimeric IgG1-kappa antibody; human-mouse chimeric antibody
B2: the concentration for a half-maximal effect (EC50) in assay [2] amounted to 0.0433 µg/mL. Further, the midpoint of the response in assay [3], the EC50, lay at 0.14 µg/mL. The same molecule showed a half-maximal inhibitory concentration (IC50) in assay [4] of 0.00199 µg/mL. In assay [5], this molecule yielded a dissociation constant Kd of 1.34 nM, a koff of 0.000312 s⁻¹ and a kon of 233000 M⁻¹ s⁻¹.

B3: humanized antibody 900339 (antibody, V domains shown)
VH: QVQLVQSGAEVKKPGASVKVSCKASGYAFTGYTIHWVRQAPGQRLEWMGWFYPGSGTLKYSEKFQGRVTITRDKSLSTAYMELSSLRSEDTAVYYCARHGTGTLMAMDYWGQGTLVTVSS
VL: DVVMTQTPLSLSVTPGQPASISCKSSQSLANSYGNTYLSWYLHKPGQSPQLLIYGISNRFSGVPDRFSGSGSGTDFTLKISRVEAEDVGVYYCLQGTHQPPTFGQGTKLEIK
notes: Humanized from the chimeric antibody; Expressed in CHO-S cells; also called humanized PD-L1 monoclonal antibody
Molecule B3 had a concentration for a half-maximal effect (EC50) in assay [2] of 0.0485 µg/mL. The molecule also showed a concentration for a half-maximal effect (EC50) in assay [3] of 0.115 µg/mL. For the same molecule, in assay [4], the IC50 was 0.00242 µg/mL. Further, in assay [5], binding was put at a Kd of 0.94 nM, the koff came to 0.000219 s⁻¹ and the kon was 233000 M⁻¹ s⁻¹.
